Measurements reported in US20110262445A1 (CEPHALON AUSTRALIA, published 2011).

T1: IL-23R extracellular domain (human, UniProt Q5VWK5 24-355)
T1 construct: Methods print IL-23/Fc Chimera for the coated receptor; also called IL-23R-HIS; IL-23/Fc Chimera (so in the source); not shown: Fc (R&D Systems chimera) or HIS tag (in-house IL-23R-HIS)
T1 sequence: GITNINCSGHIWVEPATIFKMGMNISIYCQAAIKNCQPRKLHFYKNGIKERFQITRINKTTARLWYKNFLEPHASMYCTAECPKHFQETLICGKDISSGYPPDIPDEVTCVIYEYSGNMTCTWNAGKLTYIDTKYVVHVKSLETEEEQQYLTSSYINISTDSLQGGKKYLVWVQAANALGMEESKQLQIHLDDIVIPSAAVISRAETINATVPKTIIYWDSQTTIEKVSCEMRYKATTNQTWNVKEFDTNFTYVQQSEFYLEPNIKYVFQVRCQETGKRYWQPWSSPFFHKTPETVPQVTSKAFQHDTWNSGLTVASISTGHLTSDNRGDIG

B1: human IL-12 (ligand)
chain 1: IWELKKDVYVVELDWYPDAPGEMVVLTCDTPEEDGITWTLDQSSEVLGSGKTLTIQVKEFGDAGQYTCHKGGEVLSHSLLLLHKKEDGIWSTDILKDQKEPKNKTFLRCEAKNYSGRFTCWWLTTISTDLTFSVKSSRGSSDPQGVTCGAATLSAERVRGDNKEYEYSVECQEDSACPAAEESLPIEVMVDAVHKLKYENYTSSFFIRDIIKPDPPKNLQLKPLKNSRQVEVSWEYPDTWSTPHSYFSLTFCVQVQGKSKREKKDRVFTDKTSATVICRKNASISVRAQDRYYSSSWSEWASVPCS
chain 2: RNLPVATPDPGMFPCLHHSQNLLRAVSNMLQKARQTLEFYPCTSEEIDHEDITKDKTSTVEACLPLELTKNESCLNSRETSFITNGSCLASRKTSFMMALCLSSIYEDLKMYQVEFKTMNAKLLMDPKRQIFLDQNMLAVIDELMQALNFNSETVPQKSSLEEPDFYKTKIKLCILLHAFRIRAVTIDRVMSYLNAS
notes: Recombinant (Peprotech); FLAG-tagged IL-12 in the flow cytometry assays, biotinylated in the IL-12Rβ2 assay; also called hIL-12
B2: human IL-23 (ligand)
chain 1: IWELKKDVYVVELDWYPDAPGEMVVLTCDTPEEDGITWTLDQSSEVLGSGKTLTIQVKEFGDAGQYTCHKGGEVLSHSLLLLHKKEDGIWSTDILKDQKEPKNKTFLRCEAKNYSGRFTCWWLTTISTDLTFSVKSSRGSSDPQGVTCGAATLSAERVRGDNKEYEYSVECQEDSACPAAEESLPIEVMVDAVHKLKYENYTSSFFIRDIIKPDPPKNLQLKPLKNSRQVEVSWEYPDTWSTPHSYFSLTFCVQVQGKSKREKKDRVFTDKTSATVICRKNASISVRAQDRYYSSSWSEWASVPCS
chain 2: RAVPGGSSPAWTQCQQLSQKLCTLAWSAHPLVGHMDLREEGDEETTNDVPHIQCGDGCDPQGLRDNSQFCLQRIHQGLIFYEKLLGSDIFTGEPSLLPDSPVGQLHASLLGLSQLLQPEGHHWETQQIPSLSPSQPWQRLLLRFKILRSLQAFVAVAARVFAHGAATLSP
notes: Recombinant (Ebioscience); HIS-tagged in flow cytometry, biotinylated in some assays; also called hIL-23; rhIL-23

Assays:
[1] = target: T2, IL-12Rβ1 on stably transfected Jurkat cells (human, UniProt P42701 24-662); assay: flow cytometry; binding blocked by Antibody 202.1
T2 construct: whole, on cells; Cell line negative for IL-12Rβ2 and IL-23R; also called IL-12Rβ1 Jurkat cell line
Outline: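 Jurkat cells stably transfected with IL-12Rβ1 were used. FLAG- or HIS-tagged cytokine at 250 ng/ml was preincubated with antibody (10 to 0.01 μg/ml, half-log dilutions) for one hour at 37° C, then cells at 10⁶/ml were added for a further hour. Cells were washed in PBS/10% FBS. Cell-bound cytokine was detected with phycoerythrin anti-HIS or FITC anti-FLAG on a Beckman-Coulter Quanta, and blocking of receptor binding was the read-out.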

human IL-12 = target: B1; assay: ELISA
Outline: (§1)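 Maxisorp plates were coated overnight at 4° C with cytokine at 1 μg/mL in carbonate buffer pH 9.6, then blocked for 1 hour at 25° C with 1% BSA in PBS. Antibody titrations were allowed to bind for 1 hour at 25° C and detected with goat anti-human IgG or anti-murine immunoglobulin HRP (1:2000, 1 hour), followed by TMB development stopped with 1M HCl. Binding is reported as absorbance. Readings were taken at 450 nm against a 620 nm reference.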

human IL-23 = target: B2; assay: ELISA
Outline: as §1

[2] = target: T1, IL-23R extracellular domain; assay: ELISA, IL-23R coated
Experimental: (§2) The plate was then washed three times with wash buffer. The wells were then blocked by adding 200 μl of blocking buffer to each well and incubating the plate at 25° C. for 1 hour. The supernatant was diluted in antibody diluent sufficient to generate a titration curve and 100 µl was added to wells then incubated for 1 hour at 25° C. The plate was then washed as previously described and 100 μl of Monoclonal Anti-FLAG® M2-HRP (Sigma-Aldrich®) at 1:1000 in antibody diluent was used to detect bound cytokine. After incubation at 25° C. for 1 hour the plate was washed again as previously described. 100 μl TMB substrate solution (Sigma-Aldrich®) was added to each well and the colour allowed to develop for 5 minutes. 100 μl of 1M HCl was added to terminate the colour development reaction and absorbance was determined at 450 nm (ref. 620 nm).

IL-12Rβ1/Fc Chimera = target: T3, IL-12Rβ1/Fc Chimera (human, UniProt P42701 25-545); assay: ELISA, IL-12Rβ1 coated
T3 construct: not shown: Fc of the bought R&D Systems chimera
Experimental: as §2

binding result [1]	binding result (human IL-12)	binding result (human IL-23)	binding result [2]	binding result (IL-12Rβ1/Fc Chimera)	Binder
binds					B1
binds					B2
	binds	binds			Antibody 176 (antibody, human IgG1, kappa) heavy: not shown light: DIQMTQSPSSVSASVGDRVTITCRASQSISINLHWYQQKPGKAPKLLIYFASQSISGVPSRFSGSGSGTDFSLTINSLQTEDFATYYCQQSNSFPLTFGGGTKVEIKRTVAAPSVFIFPPSDEQLKSGTASVVCLLNNFYPREAKVQWKVDNALQSGNSQESVTEQDSKDSTYSLSSTLTLSKADYEKHKVYACEVTHQGLSSPVTKSFNRGEC
	binds	binds			Antibody 178 (antibody, human IgG1, kappa, V domains shown) VH: EVQLVQSGAEVKKPGATVKISCKASGYALSDYYLHWVRQAPEKGLEWMGWIDPENGDTEYAPKFQGRVTITADTSTDTGYLELSSLRSEDTAVYYCAANKELRYFDVWGQGTLVTVSS VL: DIQMTQSPSSVSASVGDRVTITCRASQSISINLHWYQQKPGKAPKLLIYFASQSISGVPSRFSGSGSGTDFSLTINSLQTEDFATYYCQQSNSFPLTFGGGTKVEIKR
			binds	binds	IL-23 mutant D265A (ligand) IWELKKDVYVVELDWYPDAPGEMVVLTCDTPEEDGITWTLDQSSEVLGSGKTLTIQVKEFGDAGQYTCHKGGEVLSHSLLLLHKKEDGIWSTDILKDQKEPKNKTFLRCEAKNYSGRFTCWWLTTISTDLTFSVKSSRGSSDPQGVTCGAATLSAERVRGDNKEYEYSVECQEDSACPAAEESLPIEVMVDAVHKLKYENYTSSFFIRDIIKPDPPKNLQLKPLKNSRQVEVSWEYPDTWSTPHSYFSLTFCVQVQGKSKREKKARVFTDKTSATVICRKNASISVRAQDRYYSSSWSEWASVPCSGSGSSRGGSGSGGSGGGGSKLRAVPGGSSPAWTQCQQLSQKLCTLAWSAHPLVGHMDLREEGDEETTNDVPHIQCGDGCDPQGLRDNSQFCLQRIHQGLIFYEKLLGSDIFTGEPSLLPDSPVGQLHASLLGLSQLLQPEGHHWETQQIPSLSPSQPWQRLLLRFKILRSLQAFVAVAARVFAHGAATLSP
			binds	binds	IL-23 mutant R266A (ligand) IWELKKDVYVVELDWYPDAPGEMVVLTCDTPEEDGITWTLDQSSEVLGSGKTLTIQVKEFGDAGQYTCHKGGEVLSHSLLLLHKKEDGIWSTDILKDQKEPKNKTFLRCEAKNYSGRFTCWWLTTISTDLTFSVKSSRGSSDPQGVTCGAATLSAERVRGDNKEYEYSVECQEDSACPAAEESLPIEVMVDAVHKLKYENYTSSFFIRDIIKPDPPKNLQLKPLKNSRQVEVSWEYPDTWSTPHSYFSLTFCVQVQGKSKREKKDAVFTDKTSATVICRKNASISVRAQDRYYSSSWSEWASVPCSGSGSSRGGSGSGGSGGGGSKLRAVPGGSSPAWTQCQQLSQKLCTLAWSAHPLVGHMDLREEGDEETTNDVPHIQCGDGCDPQGLRDNSQFCLQRIHQGLIFYEKLLGSDIFTGEPSLLPDSPVGQLHASLLGLSQLLQPEGHHWETQQIPSLSPSQPWQRLLLRFKILRSLQAFVAVAARVFAHGAATLSP
